Results published in patent WO2010066762A1.

Target: Recombinant Interleukin-1 beta (IL-1B) (human) (UniProt P01584)
Assay: cell-based or functional assay

Chain of UniProt P01584 (P01584 117-269 limits assumed): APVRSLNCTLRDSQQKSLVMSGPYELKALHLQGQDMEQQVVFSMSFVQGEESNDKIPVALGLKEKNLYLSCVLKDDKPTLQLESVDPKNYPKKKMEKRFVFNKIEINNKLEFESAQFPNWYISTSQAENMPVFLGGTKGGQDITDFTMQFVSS

Bioassay [%] (relative potency vs ACZ885 reference standard); reconstituted lyophilisate F1, stored at 5°C: 103% | Bioassay [%] (relative potency vs ACZ885 reference standard); reconstituted lyophilisate F1, stored at 25°C: 99% | Bioassay [%] (relative potency vs ACZ885 reference standard); reconstituted lyophilisate F1, stored at 40°C: 93% | Bioassay [%] (relative potency vs ACZ885 reference standard); reconstituted lyophilisate F3, stored at 5°C: 101% | Bioassay [%] (relative potency vs ACZ885 reference standard); reconstituted lyophilisate F3, stored at 25°C: 91% | Bioassay [%] (relative potency vs ACZ885 reference standard); reconstituted lyophilisate F3, stored at 40°C: 95% | Reporter Gene Assay [%] (relative potency vs ACZ885 reference standard); liquid formulation 150 mg/mL, start: 121% | Reporter Gene Assay [%] (relative potency vs ACZ885 reference standard); liquid formulation, 5°C, 4 months: 97% | Reporter Gene Assay [%] (relative potency vs ACZ885 reference standard); liquid formulation, 5°C, 10 months: 99% | Reporter Gene Assay [%] (relative potency vs ACZ885 reference standard); liquid formulation, 5°C, 16.5 months: 110% | Reporter Gene Assay [%] (relative potency vs ACZ885 reference standard); liquid formulation, 5°C, 24 months (n=4): 99% | Reporter Gene Assay [%] (relative potency vs ACZ885 reference standard); liquid formulation, 25°C, 4 months: 100% | Reporter Gene Assay [%] (relative potency vs ACZ885 reference standard); liquid formulation, 25°C, 10 months: 85% | Reporter Gene Assay [%] (relative potency vs ACZ885 reference standard); liquid formulation, 25°C, 16.5 months: 74% | Reporter Gene Assay [%] (relative potency vs ACZ885 reference standard); liquid formulation, 25°C, 24 months (n=4): 70% | Reporter Gene Assay [%] (relative potency vs ACZ885 reference standard); liquid formulation, 40°C, 2 months: 78% | Reporter Gene Assay [%] (relative potency vs ACZ885 reference standard); liquid formulation, 40°C, 4 months: 53%
Substance: ACZ885 antibody
